Entries after “also recorded” stand apart in the source; their conditions may differ. One block for each substance: values may come before it. No end group written: not given here. *: point of attachment. SO3 = O=S(=O)(O)*
Legend:
factor Xa = factor Xa (Homo sapiens, UniProt P00742); test: Cofactor effect of factor Va heavy chain peptides on factor Xa alone; type: biochemical; details: peptide incubated with factor Xa alone
[1] = test system: factor V deficient plasma; test: Clotting activity of recombinant factor V molecules; details: for Activity / Specific activity / clotting time: factor V species at 2.5 nM
Description: Determination of factor V/tor Va clotting activity of the recombinant molecules. Cofactor activity of wild type and mutant molecules was measured in a clotting assay using factor V deficient plasma prior and after activation by thrombin (15 min, 37° C.) and RVV-V activator (2 hr, 37° C.) as described. The values were standardized to the percentage of control. A linear semi-log graph was constructed using known concentrations of purified factor V (U/ml as a function of clotting time). The assay endpoint was determined by visualization of the fibrin clot. The activity of the factor VNa solution (U/ml) was determined by extrapolation from the graph. The concentration of the recombinant molecules was determined by a recently described ELISA. Finally, the numbers were combined to obtain the specific activity of the recombinant factor V solutions (U/mg).

prothrombinase = biological target: T1, prothrombinase (Homo sapiens, UniProt P00734); test: Assay measuring thrombin formation (prothrombinase inhibition by peptides, DAPA fluorescence); type: biochemical; details: for inhibition of prothrombinase activity with increasing peptide: FIG. 10A, up to 8000 nM
T1 construct: purchased Haematologic Technologies Inc. (Essex Junction, Vt.)
Description: Assay measuring thrombin formation. The formation of thrombin was analyzed using the fluorescent thrombin inhibitor DAPA as described using a Perkin Elmer LS-50B Luminescence Spectrometer (Perkin-Elmer LLC, Norwalk Conn.) with λex=280 nm, λem=550 nm and a 500 nm long pass filter in the emission beam (Schott KV-500). […] In all cases peptides were preincubated with factor tor Va prior to the assay as described in the legend to the figures. The final concentration of factor tor Va in the mixture was 4 nM with factor Xa at 10 nM, prothrombin at 350 nM, DAPA at 700 nM, in the presence of PCPS vesicles (10 μM). The initial rate of thrombin formation (nM IIa·min^−1) was calculated as described during the initial 5-10 sec of the reaction. To verify if the peptides have any effect on the active-site of thrombin, control experiments were performed as follows: a given peptide (at 100 μM) was incubated in the assay buffer containing DAPA (700 nM); the base line was monitored for 30 sec; thrombin (350 nM) was then added to the mixture and the fluorescent intensity resulting from the complexation of DAPA with the active site of thrombin was monitored for 60 sec. The slope of the reaction measuring thrombin formation in the presence of a given peptide during the first 5 sec was calculated and compared to the slope of a reaction obtained in the absence of peptide. It is noteworthy that under the conditions employed the thrombin-DAPA interaction occurred fast and the calculated slope of the reaction was sensitive to all parameters used. […] All experiments were performed in triplicates or as indicated. The concentration of each peptide given in the figures and figure legends is their final concentration in the assay. […] In some cases the data were also analyzed and plotted using DeltaGraph (DeltaPoint, Monterey, Calif.).
Specifically, peptides were incubated with factor tor Va as described herein at a fixed concentration (100 μM). The percent of factor tor Va cofactor activity was calculated by comparing the activity of prothrombinase in the presence of a given peptide to the activity of prothrombinase determined in a control reaction in the absence of peptide and in the presence of factor Xa. […] The control peptide represents a pentadecapeptide from the middle portion of factor tor Va heavy chain (P15H) (SEQ ID NO. 22). […] All other peptides from region 680-709 had no significant effect on prothrombinase activity.
HC3 represents amino acid sequence 690-699 of factor tor Va heavy chain; HC4 contains the sequence 695-704 of human factor tor Va heavy chain; P15H represents amino acid sequence 337-351 from the middle portion of human factor tor Va heavy chain. […] The concentration of each peptide given on the x axis represents its final concentration in the prothrombinase mixture. […] Thus, both peptides show similar inhibitory potential.

[2] = Clotting time as a function of peptide concentration (FIG. 12); details: peptide 500 nM
Source text: FIG. 12 is a graph illustrating clotting time as a function of concentration of various peptides of interest as follows: DYDYQ (SEQ ID NO. 11) (filled squares); DYDYQ (1, 2) (or as designated in shorthand form, D5Q1,2) (SEQ ID NO. 9) (filled triangles); DYDYQ-1 (SEQ ID NO. 7) (filled inverted triangles); and DYDYQ-2 (SEQ ID NO. 8) (filled diamonds).

[3] = biological target: T2, active-site-immobilized thrombin (Homo sapiens, UniProt P00734); test: Direct binding of the peptides to thrombin-agarose (chromatography); details: 400 μg peptide, 2.5 ml column, elution 2M NaCl
T2 construct: Factor Xa cleaves prothrombin to form thrombin; purchased Haematologic Technologies Inc. (Essex Junction, Vt.)
Description: Direct binding of the peptides to thrombin. Thrombin was immobilized onto agarose through the active site as described. Peptide solutions of HC1-HC5 (SEQ ID NO. 2-6, respectively), D13R (SEQ ID NO. 21), DYDYQ (SEQ ID NO. 11), and P15H (SEQ ID NO. 22) were dissolved in water to a given concentration and then diluted in 20 mM Hepes, 0.1 M NaCl, pH 7.4 in a manner that 400 μg was contained in each starting solution. In control experiments it was determined that the maximum amount of peptide that could be retained by the thrombin-agarose column was 400 μg. Since some of the peptides contain aromatic amino acid residues, their concentration was also measured by optical density.
Mass spectrometry instruments and conditions. The identity of all peptides found in the flow-through or the elution of the thrombin-agarose column was verified by mass spectrometry. Since the peptides were in a buffer solution, we used Liquid Chromatography/Mass Spectrometry (LC/MS) for their identification. In this procedure peptides are first separated from the salt content of the buffer using an HPLC system (HP 1100, HPLC gradient system, Agilent Technologies, Palo Alto Calif.) with a C18 column (1 mm×15 cm, GraceVydac, Hesperia Calif.) with buffers A (0.3% acetic acid in water) and B (0.3% acetic acid in acetonitrile). The elution of the column was monitored with a Micromass Quatro II ESI-Triple Quadrupole Mass Spectrometer (Waters, Milford Mass.). The data were collected using a Compaq Professional Workstation AP200 (Hewlett-Packard, Palo Alto Calif.) and analyzed by the software MassLynx v3.3 (Waters, Milford Mass.).
Direct interaction of hirudin-like peptides from factor tor Va heavy chain With thrombin-agarose. To ascertain that the peptides of interest are inhibitory of prothrombinase activity and contain a binding site for thrombin, the interaction of all peptides with active-site-immobilized thrombin was studied in chromatographic experiments and is shown in FIG. 5. In FIG. 5, small scale chromatography of hirudin-like peptides was performed on a 2.5 ml thrombin-agarose. Each run represents 400 μg of peptide. This amount of peptide was determined to saturate the specific sites of thrombin of the column used (2.5 ml). Elution was performed with 2M NaCl and was started at the point indicated by the arrow (fraction #30). The presence of the peptides in the corresponding fractions was monitored by absorbance at 280 nm (shown on the y axis) and by LC/MS (inset). […] Specifically, these peptides were treated similarly to all other peptides and similar fractions were collected. Aliquots from fractions #7 and #35 from each separate experiment were submitted to LC/MS analysis as described herein (depicted by the hatched arrows at the bottom of the chromatogram). The results from tube #7 from three chromatograms are depicted. The data are presented as % intensity of the signal as a function of the mass of the peptide divided by the charge (m/z). FIG. 5A, HC1 (Mr calculated 1268); FIG. 5B, HC2 (Mr calculated 1132); FIG. 5C, HC5 (Mr calculated 1053). The spectrum of HC1 has two major peaks: at 635.5 and at 424, and one minor peak at 1270 (1268+1). The peak at 635.5 represents the peptide (mass/charge) with two positive charges ([…]) i.e. [(1268+2=1270)]/2=635 whereas, the peak at 424 represents HC1 with three positive charges ([…]) i.e. [(1268+3=1271)]/3=424. […] HC5 spectrum has two major peaks: one at 528 and one at 352. The peak at 528 represents the peptide with two positive charges ([…]) i.e. [(1053+2=1055)]/2=527.5 while, the other peak represents HC5 with three positive charges ([M+31-]^2+) i.e. [(1053+3=1056)]/3=352. The minor peak at 1054 represents the peptide with one charge. It is noteworthy, that in gas phase the number of protons attached to each peptide depends on the number (quantity) of basic residues contained in each peptide. […] Thus, HC1 and HC5 are more likely to bind two or three protons than HC2. […]

Sequence of factor Xa (P00742 235-488 limits assumed): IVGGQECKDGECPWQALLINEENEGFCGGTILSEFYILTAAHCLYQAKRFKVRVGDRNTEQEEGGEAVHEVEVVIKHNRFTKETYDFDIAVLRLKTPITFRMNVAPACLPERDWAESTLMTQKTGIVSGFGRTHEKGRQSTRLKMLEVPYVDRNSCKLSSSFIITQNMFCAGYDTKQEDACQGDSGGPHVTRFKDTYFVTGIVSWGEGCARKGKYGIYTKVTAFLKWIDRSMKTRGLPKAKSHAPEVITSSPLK
Sequence of factor Xa (P00742 41-179 limits assumed): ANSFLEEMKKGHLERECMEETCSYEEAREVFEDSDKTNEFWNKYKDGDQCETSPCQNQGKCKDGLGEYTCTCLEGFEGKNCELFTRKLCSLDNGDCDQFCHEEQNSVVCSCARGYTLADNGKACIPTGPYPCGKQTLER

Substance: Factor V^2K2F: quadruple mutant, recombinant human factor V with mutations D695→K, Y696→F, D697→K, Y698→F
ability to promote clotting [1]: unable to promote clotting
Activity [1]: 0.0046 U/ml
Specific activity [1]: 5.6 U/mg
clotting time [1]: 66.7 ± 1.3 s

Substance: AP4′: nine amino acid peptide, residues 323-331, from N42R (EYFIAAEEV; listed as Homo sapiens)
cofactor effect on factor Xa (factor Xa): generated a cofactor effect

Substance: HC2: overlapping 10 amino acid peptide from region 680-709 of human factor Va heavy chain (LEPEDEESDA; listed as Homo sapiens)
interaction with immobilized thrombin (thrombin-agarose) [3]: present in the flow-through

Substance: Wild type FV: recombinant wild type human factor V expressed in COS-7L cells
specific clotting activity after activation by RVV-V activator ([1]; activated by RVV-V activator): 570 U/mg
specific clotting activity after activation by thrombin ([1]; activated by thrombin): 497 U/mg
Activity [1]: 0.12 U/ml
Specific activity [1]: 145 U/mg
clotting time [1]: 32.1 ± 1.2 s

Substance: DY(—SO3)DYQ (DY(SO3)DYQ) [DYDYQ-1, DYDYQ with first Y sulfonated]
inhibition of prothrombinase activity with increasing peptide (prothrombinase): significant inhibitory effects
clotting time [2]: relatively long clotting times

Substance: P15H: negative control pentadecapeptide, amino acid sequence 337-351 from the middle portion of human factor Va heavy chain (PVIPANMDKKYRSQH) [reference compound]
interaction with immobilized thrombin (thrombin-agarose) [3]: did not interact with thrombin
effect on prothrombinase / factor Va cofactor activity at fixed concentration (prothrombinase; peptide 100 μM): no effect on cofactor activity; also recorded: no effect on prothrombinase function

Substance: N42R: 42 amino acid peptide from the middle portion of factor Va heavy chain, residues 307-351 of factor V (NLKKITREQRRHMKRWEYFIAAEEVIWDYAPVIPANMDKKYR; listed as Homo sapiens)
cofactor effect on factor Xa (factor Xa): increasing the catalytic efficiency of the enzyme by several-fold

Continued, in another order:

cofactor effect on factor Xa (factor Xa): generated a cofactor effect
Substance: E5A: five amino acid peptide, residues 323-327, from N42R (EYFIA; listed as Homo sapiens)

inhibition of prothrombinase activity with increasing peptide (prothrombinase): significant inhibitory effects
Substance: DYDY(—SO3)Q (DYDY(SO3)Q) [DYDYQ-2, DYDYQ with second Y sulfonated]
clotting time [2]: relatively long clotting times

interaction with immobilized thrombin (thrombin-agarose) [3]: present in the flow-through
Substance: HC1: overlapping 10 amino acid peptide from region 680-709 of human factor Va heavy chain (KMHDRLEPED; listed as Homo sapiens)

— US20100267638A1, “EXOSITE-DIRECTED THROMBIN INHIBITORS” (CLEVELAND STATE UNIVERSITY, priority 2003, published 2010)
